Strand notation (5' to 3'): a small letter for the sugar, then the base; units joined by * are phosphorothioate-linked, units joined directly phosphodiester-linked; [ ] holds rarer units or linkages, { } end groups; capitals alone tell only the bases. m = 2'-O-methyl; r = 2'-OH (RNA)
How the values were obtained:
[1] = tested on: TTR; experiment: TTR editing in primary human hepatocytes transfected with Spy Cas9 protein and sgRNAs (Table 12); assay type: cell-based; conditions: primary human hepatocytes transfected with Spy Cas9 protein (RNP) and sgRNAs
Procedure: (§1) Primary liver hepatocytes. Primary human liver hepatocytes (PHH) and primary cynomolgus liver hepatocytes (PCH) (Gibco) were cultured per the manufacturer's protocol (Invitrogen, protocol 11.28.2012). In brief, the cells were thawed and resuspended in hepatocyte thawing medium with supplements (Gibco, Cat. CM7000) followed by centrifugation at 100 g for 10 minutes for human and 80 g for 4 minutes for cyno. The supernatant was discarded and the pelleted cells resuspended in hepatocyte plating medium plus supplement pack (Invitrogen, Cat. A1217601 and CM3000). Cells were counted and plated on Bio-coat collagen I coated 96-well plates (ThermoFisher, Cat. 877272) at a density of 33,000 cells/well for human or 60,000 cells/well for cyno (or 65,000 cells/well when assaying effects on TTR protein, described further below). Plated cells were allowed to settle and adhere for 6 or 24 hours in a tissue culture incubator at 37° C. and 5% CO2 atmosphere. After incubation cells were checked for monolayer formation and media was replaced with hepatocyte culture medium with serum-free supplement pack (Invitrogen, Cat. A1217601 and CM4000).
[…] formation was performed prior to electroporation or transfection of Spy Cas9 protein loaded with guide RNAs (RNPs) onto cells. For dual guide (dgRNAs), individual crRNA and trRNA was pre-annealed by mixing equivalent amounts of reagent and incubating at 95° C. for 2 min and cooling to room temperature. Single guide (sgRNAs) were boiled at 95° C. for 2 min and cooling to room temperature. The boiled dgRNA or sgRNA was incubated with Spy Cas9 protein in Optimem for 10 minutes at room temperature to form a ribonucleoprotein (RNP) complex.
For RNP lipoplex transfections, cells were transfected with Lipofectamine RNAiMAX (ThermoFisher, Cat. 13778150) per the manufacturer's protocol. Cells were transfected with an RNP containing Spy Cas9 (10 nM), individual guide (10 nM), tracer RNA (10 nM), Lipofectamine RNAiMAX (1.0 μL/well) and OptiMem. RNP formation was performed as described above.
Transfected cells were harvested post-transfection at 24, 48, or 72 hours. The genomic DNA was extracted from each well of a 96-well plate using 50 μL/well BuccalAmp DNA Extraction solution (Epicentre, Cat. QE09050) per manufacturer's protocol. All DNA samples were subjected to PCR and subsequent NGS analyses, as described herein.
(§2) To quantitatively determine the efficiency of editing at the target location in the genome, sequencing was utilized to identify the presence of insertions and deletions introduced by gene editing.
(§3) Primers were designed around the target site within the gene of interest (e.g. TTR), and the genomic area of interest was amplified.
(§4) Additional PCR was performed per the manufacturer's protocols (Illumina) to add chemistry for sequencing. The amplicons were sequenced on an Illumina MiSeq instrument. The reads were aligned to a reference genome (e.g., the human reference genome (hg38), the cynomologus reference genome (mf5), the rat reference genome (rn6), or the mouse reference genome (mm10)) after eliminating those having low quality scores. The resulting files containing the reads were mapped to the reference genome (BAM files), where reads that overlapped the target region of interest were selected and the number of wild type reads versus the number of reads which contain an insertion, substitution, or deletion was calculated.
(§5) The editing percentage (e.g., the “editing efficiency” or “percent editing” or “indel frequency”) is defined as the total number of sequence reads with insertions/deletions (“indels”) or substitutions over the total number of sequence reads, including wild type.
Guides in modified sgRNA format targeting human and/or cyno TTR were delivered to primary human hepatocytes and primary cyno hepatocytes as described in Example 1. […]

[2] = tested on: TTR; experiment: EC50 and maximum editing in primary cyno hepatocytes treated with LNP formulated U-depleted Spy Cas9 mRNA and sgRNAs (Tables 20, 22); assay type: cell-based, cynomolgus monkey; set-up: key: % of sequence reads with indels or substitutions over total reads; conditions: Table 20, LNP with U-depleted Spy Cas9 mRNA and human specific sgRNAs, dose response
Procedure: as §1
(§6) For LNPs prepared using the cross-flow technique, the LNPs were formed by impinging jet mixing of the lipid in ethanol with two volumes of RNA solutions and one volume of water. The lipid in ethanol is mixed through a mixing cross with the two volumes of RNA solution. A fourth stream of water is mixed with the outlet stream of the cross through an inline tee. (See WO2016010840 FIG. 2.) The LNPs were held for 1 hour at room temperature, and further diluted with water (approximately 1:1 v/v). Diluted LNPs were concentrated using tangential flow filtration on a flat sheet cartridge (Sartorius, 100 kD MWCO) and then buffer exchanged by diafiltration into 50 mM Tris, 45 mM NaCl, 5% (w/v) sucrose, pH 7.5 (TSS). Alternatively, the final buffer exchange into TSS was completed with PD-10 desalting columns (GE). If required, formulations were concentrated by centrifugation with Amicon 100 kDa centrifugal filters (Millipore). The resulting mixture was then filtered using a 0.2 μm sterile filter. The final LNP was stored at 4° C. or −80° C. until further use.
as §2, §3, §4, §5
(§7) Lipid nanoparticle formulations of modified sgRNAs targeting human TTR and the cyno matched sgRNA sequences were tested on primary human hepatocytes and primary cyno hepatocytes in a dose response curve. Primary human and cyno hepatocytes were plated as described in Example 1. Both cell lines were incubated at 37° C., 5% CO2 for 24 hours prior to treatment with LNPs. […]

[3] = tested on: TTR; experiment: EC50 and maximum editing in primary human hepatocytes treated with LNP formulated U-depleted Spy Cas9 mRNA and sgRNAs (Tables 19, 21); assay type: cell-based; set-up: key: % of sequence reads with indels or substitutions over total reads; conditions: Table 19, LNP with U-depleted Spy Cas9 mRNA and human specific sgRNAs, dose response
Procedure: as §1, §6, §2, §3, §4, §5, §7

Row | Molecule | Avg % Deletion [1] [%] | Avg % Edit [1] [%] | Avg % Insert [1] [%] | Max Editing [2] | Max Editing [3]
1 | G000501: TTR sgRNA modified sequence, Human, SEQ ID No. 108; guide sequence of CR005300 (nucleic acid) guide: mU*mC*mA*rCrArGrArArArCrArCrUrCrArCrCrGrUrArGrUrUrUrUrArGrAmGmCmUmAmGmAmAmAmUmAmGmCrArArGrUrUrArArArArUrArArGrGrCrUrArGrUrCrCrGrUrUrArUrCrAmAmCmUmUmGmAmAmAmAmAmGmUmGmGmCmAmCmCmGmAmGmUmCmGmGmUmGmCmU*mU*mU*mU | 6.00 | 60.93 | 55.13 | – | –
2 | G000567: TTR sgRNA modified sequence, Human, SEQ ID No. 109; guide sequence of CR003352 (nucleic acid) guide: mG*mA*mA*rArGrGrCrUrGrCrUrGrArUrGrArCrArCrCrGrUrUrUrUrArGrAmGmCmUmAmGmAmAmAmUmAmGmCrArArGrUrUrArArArArUrArArGrGrCrUrArGrUrCrCrGrUrUrArUrCrAmAmCmUmUmGmAmAmAmAmAmGmUmGmGmCmAmCmCmGmAmGmUmCmGmGmUmGmCmU*mU*mU*mU | – | – | – | 97.06 | –
3 | G000487: TTR sgRNA modified sequence, Human, SEQ ID No. 94; guide sequence of CR003357 (nucleic acid) guide: mU*mU*mC*rUrUrUrGrGrCrArArCrUrUrArCrCrCrArGrGrUrUrUrUrArGrAmGmCmUmAmGmAmAmAmUmAmGmCrArArGrUrUrArArArArUrArArGrGrCrUrArGrUrCrCrGrUrUrArUrCrAmAmCmUmUmGmAmAmAmAmAmGmUmGmGmCmAmCmCmGmAmGmUmCmGmGmUmGmCmU*mU*mU*mU | 2.07 | 67.30 | 65.27 | – | –
4 | G000496: TTR sgRNA modified sequence, Human, SEQ ID No. 103; guide sequence of CR005304 (nucleic acid) guide: mG*mG*mC*rCrGrUrGrCrArUrGrUrGrUrUrCrArGrArArGrUrUrUrUrArGrAmGmCmUmAmGmAmAmAmUmAmGmCrArArGrUrUrArArArArUrArArGrGrCrUrArGrUrCrCrGrUrUrArUrCrAmAmCmUmUmGmAmAmAmAmAmGmUmGmGmCmAmCmCmGmAmGmUmCmGmGmUmGmCmU*mU*mU*mU | 27.67 | 72.33 | 44.73 | – | –
5 | G000492: TTR sgRNA modified sequence, Human, SEQ ID No. 99; guide sequence of CR003342 (nucleic acid) guide: mC*mU*mU*rCrUrCrUrArCrArCrCrCrArGrGrGrCrArCrGrUrUrUrUrArGrAmGmCmUmAmGmAmAmAmUmAmGmCrArArGrUrUrArArArArUrArArGrGrCrUrArGrUrCrCrGrUrUrArUrCrAmAmCmUmUmGmAmAmAmAmAmGmUmGmGmCmAmCmCmGmAmGmUmCmGmGmUmGmCmU*mU*mU*mU | 3.13 | 60.97 | 57.90 | – | –
6 | G000498: TTR sgRNA modified sequence, Human, SEQ ID No. 105; guide sequence of CR003359 (nucleic acid) guide: mA*mG*mU*rGrArGrUrCrUrGrGrArGrArGrCrUrGrCrArGrUrUrUrUrArGrAmGmCmUmAmGmAmAmAmUmAmGmCrArArGrUrUrArArArArUrArArGrGrCrUrArGrUrCrCrGrUrUrArUrCrAmAmCmUmUmGmAmAmAmAmAmGmUmGmGmCmAmCmCmGmAmGmUmCmGmGmUmGmCmU*mU*mU*mU | 12.70 | 72.80 | 60.17 | – | –
7 | G000497: TTR sgRNA modified sequence, Human, SEQ ID No. 104; guide sequence of CR003335 (nucleic acid) guide: mC*mU*mG*rCrUrCrCrUrCrCrUrCrUrGrCrCrUrUrGrCrGrUrUrUrUrArGrAmGmCmUmAmGmAmAmAmUmAmGmCrArArGrUrUrArArArArUrArArGrGrCrUrArGrUrCrCrGrUrUrArUrCrAmAmCmUmUmGmAmAmAmAmAmGmUmGmGmCmAmCmCmGmAmGmUmCmGmGmUmGmCmU*mU*mU*mU | 8.73 | 59.67 | 51.10 | – | –
8 | G000570: TTR sgRNA modified sequence, Human, SEQ ID No. 111; guide sequence of CR003347 (nucleic acid) guide: mC*mA*mU*rUrGrArUrGrGrCrArGrGrArCrUrGrCrCrUrGrUrUrUrUrArGrAmGmCmUmAmGmAmAmAmUmAmGmCrArArGrUrUrArArArArUrArArGrGrCrUrArGrUrCrCrGrUrUrArUrCrAmAmCmUmUmGmAmAmAmAmAmGmUmGmGmCmAmCmCmGmAmGmUmCmGmGmUmGmCmU*mU*mU*mU | – | – | – | 96.73 | 98.22
9 | G000571: TTR sgRNA modified sequence, Human, SEQ ID No. 112; guide sequence of CR005301 (nucleic acid) guide: mG*mU*mC*rArCrArGrArArArCrArCrUrCrArCrCrGrUrGrUrUrUrUrArGrAmGmCmUmAmGmAmAmAmUmAmGmCrArArGrUrUrArArArArUrArArGrGrCrUrArGrUrCrCrGrUrUrArUrCrAmAmCmUmUmGmAmAmAmAmAmGmUmGmGmCmAmCmCmGmAmGmUmCmGmGmUmGmCmU*mU*mU*mU | – | – | – | 97.03 | 71.28
10 | G000491: TTR sgRNA modified sequence, Human, SEQ ID No. 98; guide sequence of CR003338 (nucleic acid) guide: mA*mU*mA*rCrCrArGrUrCrCrArGrCrArArGrGrCrArGrGrUrUrUrUrArGrAmGmCmUmAmGmAmAmAmUmAmGmCrArArGrUrUrArArArArUrArArGrGrCrUrArGrUrCrCrGrUrUrArUrCrAmAmCmUmUmGmAmAmAmAmAmGmUmGmGmCmAmCmCmGmAmGmUmCmGmGmUmGmCmU*mU*mU*mU | 4.33 | 74.30 | 70.27 | – | –
11 | G000485: TTR sgRNA modified sequence, Human, SEQ ID No. 92; guide sequence of CR003336 (nucleic acid) guide: mC*mC*mU*rCrCrUrCrUrGrCrCrUrUrGrCrUrGrGrArCrGrUrUrUrUrArGrAmGmCmUmAmGmAmAmAmUmAmGmCrArArGrUrUrArArArArUrArArGrGrCrUrArGrUrCrCrGrUrUrArUrCrAmAmCmUmUmGmAmAmAmAmAmGmUmGmGmCmAmCmCmGmAmGmUmCmGmGmUmGmCmU*mU*mU*mU | 3.13 | 56.07 | 53.07 | – | –
12 | G000495: TTR sgRNA modified sequence, Human, SEQ ID No. 102; guide sequence of CR003343 (nucleic acid) guide: mC*mA*mG*rArGrGrArCrArCrUrUrGrGrArUrUrCrArCrGrUrUrUrUrArGrAmGmCmUmAmGmAmAmAmUmAmGmCrArArGrUrUrArArArArUrArArGrGrCrUrArGrUrCrCrGrUrUrArUrCrAmAmCmUmUmGmAmAmAmAmAmGmUmGmGmCmAmCmCmGmAmGmUmCmGmGmUmGmCmU*mU*mU*mU | 5.37 | 50.80 | 45.80 | – | –
13 | G000568: TTR sgRNA modified sequence, Human, SEQ ID No. 110; guide sequence of CR003391 (nucleic acid) guide: mG*mG*mC*rUrGrUrCrGrUrCrArCrCrArArUrCrCrCrArGrUrUrUrUrArGrAmGmCmUmAmGmAmAmAmUmAmGmCrArArGrUrUrArArArArUrArArGrGrCrUrArGrUrCrCrGrUrUrArUrCrAmAmCmUmUmGmAmAmAmAmAmGmUmGmGmCmAmCmCmGmAmGmUmCmGmGmUmGmCmU*mU*mU*mU | – | – | – | 87.93 | 95.72

Source: patent publication US11795460B2, “Compositions and methods for TTR gene editing and treating ATTR amyloidosis” (Intellia Therapeutics, Inc., priority 2017, dated 2023)
